According to IntAct's records for PubMed 17803912:

B1: Lymphocyte antigen 96 (Homo sapiens), Q9Y6Y9 (parent)
chain: MLPFLFFSTLFSSIFTEAQKQYWVCNSSDASISYTYCDKMQYPISINVNPCIELKRSKGLLHIFYIPRRDLKQLYFNLYITVNTMNLPKRKEVICRGSDDDYSFCRALKGETVNTTISFSFKGIKFSKGKYKCVVEAISGSPEEMLFCLEFVILHQPNSN

Variants of: B1
Settings: with tlr4_human TLR4, O00206
tlr4_human TLR4, O00206, sequence (O00206 whole entry): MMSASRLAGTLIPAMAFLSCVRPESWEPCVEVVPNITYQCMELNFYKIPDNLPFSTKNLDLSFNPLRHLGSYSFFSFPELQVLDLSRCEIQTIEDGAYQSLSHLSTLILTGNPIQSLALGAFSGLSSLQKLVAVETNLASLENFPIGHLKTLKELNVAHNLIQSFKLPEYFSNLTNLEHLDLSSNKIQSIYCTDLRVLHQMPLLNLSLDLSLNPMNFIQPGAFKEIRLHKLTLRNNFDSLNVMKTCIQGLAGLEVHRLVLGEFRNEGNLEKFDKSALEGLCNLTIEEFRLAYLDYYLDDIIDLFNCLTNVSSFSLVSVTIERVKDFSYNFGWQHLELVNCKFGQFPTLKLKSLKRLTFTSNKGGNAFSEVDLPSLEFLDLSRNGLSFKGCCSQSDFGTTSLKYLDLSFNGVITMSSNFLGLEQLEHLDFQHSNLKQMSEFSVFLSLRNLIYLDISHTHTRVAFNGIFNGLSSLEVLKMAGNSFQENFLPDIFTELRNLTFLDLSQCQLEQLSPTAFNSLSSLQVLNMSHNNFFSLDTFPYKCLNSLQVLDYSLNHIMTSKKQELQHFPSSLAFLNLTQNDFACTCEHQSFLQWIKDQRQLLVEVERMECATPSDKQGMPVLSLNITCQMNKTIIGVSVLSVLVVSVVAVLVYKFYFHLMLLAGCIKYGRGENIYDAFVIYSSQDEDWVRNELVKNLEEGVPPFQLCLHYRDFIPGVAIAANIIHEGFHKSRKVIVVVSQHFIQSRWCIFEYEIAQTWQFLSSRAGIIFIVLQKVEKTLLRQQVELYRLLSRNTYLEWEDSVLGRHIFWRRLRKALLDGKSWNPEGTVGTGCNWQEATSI

Q: H155A was tested. Which “effect of a mutation on the interaction” value did it give?
A: disrupting interaction

Q: For F126A, which “effect of a mutation on the interaction” value is on record?
A: disrupting interaction
